According to patent US20240287172A1 (SCIRHOM, published 2024):

Biological target: T1, hiR2-FL-E617D-T7 (human, UniProt Q6PJF5 1-856)
T1 sequence: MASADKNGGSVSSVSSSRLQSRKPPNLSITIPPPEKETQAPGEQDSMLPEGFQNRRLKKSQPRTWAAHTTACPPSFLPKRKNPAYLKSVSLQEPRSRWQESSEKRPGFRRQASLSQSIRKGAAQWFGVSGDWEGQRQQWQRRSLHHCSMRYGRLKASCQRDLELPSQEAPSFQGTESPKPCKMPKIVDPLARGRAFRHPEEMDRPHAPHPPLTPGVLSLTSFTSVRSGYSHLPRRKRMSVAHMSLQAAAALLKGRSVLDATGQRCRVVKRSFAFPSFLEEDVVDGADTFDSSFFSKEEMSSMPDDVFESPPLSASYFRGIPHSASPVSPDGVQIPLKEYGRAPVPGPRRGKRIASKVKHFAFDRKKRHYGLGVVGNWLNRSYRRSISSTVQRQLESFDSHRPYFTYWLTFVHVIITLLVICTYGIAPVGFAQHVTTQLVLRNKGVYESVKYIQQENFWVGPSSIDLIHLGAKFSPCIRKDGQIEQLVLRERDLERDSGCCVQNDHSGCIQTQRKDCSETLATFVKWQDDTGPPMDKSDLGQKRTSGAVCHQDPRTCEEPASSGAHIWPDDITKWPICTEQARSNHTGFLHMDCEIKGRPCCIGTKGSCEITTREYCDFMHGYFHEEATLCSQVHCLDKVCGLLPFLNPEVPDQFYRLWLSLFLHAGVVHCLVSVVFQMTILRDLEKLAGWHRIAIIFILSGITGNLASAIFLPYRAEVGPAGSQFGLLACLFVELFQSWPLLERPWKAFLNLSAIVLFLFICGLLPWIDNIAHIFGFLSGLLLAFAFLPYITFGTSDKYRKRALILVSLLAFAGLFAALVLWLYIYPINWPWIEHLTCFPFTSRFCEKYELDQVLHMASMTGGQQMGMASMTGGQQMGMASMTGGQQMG
Experiment: FACS, MEF-DKO cells, 3 µg/ml
Outline: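 Binding read by flow cytometry after a PE goat anti-mouse IgG F(ab′)2 secondary (1:100, on ice, 1 h, dark). Before that, immortalized MEF-DKO lines carrying single-mutant hiR2-FL-T7 constructs were incubated 1 h on ice with 3 μg/ml antibody or FACS buffer alone.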

B1: antibody 48 (antibody, V domains shown)
VH: QVQLQQSGTELVRPGTSVKVSCKASGYAFTNYLIEWVKQRPGQGLEWIGVINPGSGFTKYNEKFKGKATLTADKSSSTVYMHLSSLTSEDSAVYFCARGLYRAMDYWGQGTSVTVSS
VL: DIQMTQSPASQSASLGESVTITCLASQTIATWLAWYQQKPGKSPQLLIYGATTLADGVPSRFSGGGSGTKFSFKISSLQAEDFVSYYCQQLYSTPYTFGGGTKLEIK
notes: mouse IgG, kappa light chain; also called clone #48; purified antibody 48
loss of binding vs wild type: ≥ 30%

B2: antibody 50 (antibody, V domains shown)
VH: QVQLQQSGAELVRPGASVKVSCKASGYAFSNYLIEWVKQRPGQGLEWIGVINPGSGFTKYNEKFKGKATLTADKSSSTAYMQLSSLTSEDSAVYFCARGLYRAMDYWGQGTSVTVSS
VL: DIQMTQSPASQSASLGESVTITCLASQTIGTWLAWYQQKPGKSPQLLIYAAASLADGVPSRFSGGGSGTKFSFKISSLQAEDFVNYYCQQIYSTPYTFGGGTKLEIK
notes: mouse IgG, kappa light chain; also called clone #50; purified antibody 50
loss of binding vs wild type: ≥ 30%
